Measured values as given in patent US20160159928A1 (published 2016).

T1: CXCR1 (UniProt P25024 1-350, limits assumed)
T1 construct: whole, on cells; also called CXCR1 receptor; CXCR1-U2OS
T1 sequence (looked up): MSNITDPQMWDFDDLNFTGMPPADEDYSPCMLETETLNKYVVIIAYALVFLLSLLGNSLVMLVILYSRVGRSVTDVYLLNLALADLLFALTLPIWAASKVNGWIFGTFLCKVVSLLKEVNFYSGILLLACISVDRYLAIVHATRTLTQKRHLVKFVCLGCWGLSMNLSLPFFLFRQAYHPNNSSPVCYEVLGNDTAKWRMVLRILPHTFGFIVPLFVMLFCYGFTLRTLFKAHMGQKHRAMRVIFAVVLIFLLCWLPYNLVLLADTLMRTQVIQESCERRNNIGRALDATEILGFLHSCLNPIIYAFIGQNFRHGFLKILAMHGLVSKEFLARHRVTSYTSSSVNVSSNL

B1: VH4-34+CDR3-IL8_CDR1 Cow with light chain V1-51 (antibody, human IgG1, lambda)
heavy: not shown
light: QSVLTQPPSVSAAPGQKVTISCSGSSSNIGNNYVSWYQQLPGTAPKLLIYDNNKRPSGIPDRFSGSKSGTSATLGITGLQTGDEADYYCASAEDSSSNAVFGSGTTLTVLGQPKAAPSVTLFPPSSEELQANKATLVCLISDFYPGAVTVAWKADSSPVKAGVETTTPSKQSNNKYAASSYLSLTPEQWKSHRSYSCQVTHEGSTVEKTVAPTECS
B2: VH4-34+CDR3-IL8_CDR1 Cow_CDR2 Cow with light chain V1-51 (antibody, human IgG1, lambda)
heavy: not shown
light: QSVLTQPPSVSAAPGQKVTISCSGSSSNIGNNYVSWYQQLPGTAPKLLIYDNNKRPSGIPDRFSGSKSGTSATLGITGLQTGDEADYYCASAEDSSSNAVFGSGTTLTVLGQPKAAPSVTLFPPSSEELQANKATLVCLISDFYPGAVTVAWKADSSPVKAGVETTTPSKQSNNKYAASSYLSLTPEQWKSHRSYSCQVTHEGSTVEKTVAPTECS
notes: also called BID 35
B3: BLV1H12+CDR3-IL8 heavy chain with BLV1H12 light chain (SEQ ID NO: 412) (antibody, human IgG1)
heavy: not shown
light: QAVLNQPSSVSGSLGQRVSITCSGSSSNVGNGYVSWYQLIPGSAPRTLIYGDTSRASGVPDRFSGSRSGNTATLTISSLQAEDEADYFCASAEDSSSNAVFGSGTTLTVLGQPKSPPSVTLFPPSTEELNGNKATLVCLISDFYPGSVTVVWKADGSTITRNVETTRASKQSNSKYAASSYLSLTSSDWKSKGSYSCEVTHEGSTVTKTVKPSECS
B4: VH1-46+CDR3-IL8 IgG (antibody)
VH: QVQLVQSGAEVKKPGASVKVSCKASGYTFTSYYMHWVRQAPGQGLEWMGIINPSGGSTSYAQKFQGRVTMTRDTSTSTVYMELSSLRSEDTAVYYCTSVHQETKKYQSPRSAKELRCQCIKTYSKPFHPKFIKELRVIESGPHCANTEIIVKLSDGRELCLDPKENWVQRVVEKFLKRAENSGSGSYTYNYEWHVDVWGQGLLVTVSSAS
light: not shown
notes: also called VH1-46 BLVCDR3IL8
B5: BLV1H12 IgG (antibody)
VH: QVQLRESGPSLVKPSQTLSLTCTASGFSLSDKAVGWVRQAPGKALEWLGSIDTGGNTGYNPGLKSRLSITKDNSKSQVSLSVSSVTTEDSATYYCTSVHQETKKYQSCPDGYRERSDCSNRPACGTSDCCRVSVFGNCLTTLPVSYSYTYNYEWHVDVWGQGLLVTVSSAS
light: not shown
notes: also called ULcowV
B6: VH4-34+CDR3-IL8 IgG (BLV1H12 light chain) (antibody)
VH: QVQLQQWGAGLLKPSETLSLTCAVYGGSFSGYYWSWIRQPPGKGLEWIGEINHSGSTNYNPSLKSRVTISVDTSKNQFSLKLSSVTAADTAVYYCTSVHQETKKYQSPRSAKELRCQCIKTYSKPFHPKFIKELRVIESGPHCANTEIIVKLSDGRELCLDPKENWVQRVVEKFLKRAENSGSGSYTYNYEWHVDVWGQGLLVTVSSAS
light: not shown
notes: also called VH4-34 BLVCDR3IL8
B7: VH4-34+CDR3-IL8_CDR2 Cow IgG (BLV1H12 light chain) (antibody)
VH: QVQLQQWGAGLLKPSETLSLTCAVYGGSFSGYYWSWIRQPPGKGLEWLGSIDTGGNTGYNPSLKSRVTISVDTSKNQFSLKLSSVTAADTAVYYCTSVHQETKKYQSPRSAKELRCQCIKTYSKPFHPKFIKELRVIESGPHCANTEIIVKLSDGRELCLDPKENWVQRVVEKFLKRAENSGSGSYTYNYEWHVDVWGQGLLVTVSSAS
light: not shown
notes: also called VH4-34 + CDR3-IL8 + Cow CDR2
B8: VH4-34+CDR3-IL8_CDR2 E50S IgG (BLV1H12 light chain) (antibody)
VH: QVQLQQWGAGLLKPSETLSLTCAVYGGSFSGYYWSWIRQPPGKGLEWIGSINHSGSTNYNPSLKSRVTISVDTSKNQFSLKLSSVTAADTAVYYCTSVHQETKKYQSPRSAKELRCQCIKTYSKPFHPKFIKELRVIESGPHCANTEIIVKLSDGRELCLDPKENWVQRVVEKFLKRAENSGSGSYTYNYEWHVDVWGQGLLVTVSSAS
light: not shown
notes: also called VH4-34 + CDR3-IL8 + E50S
B9: VH1-24+CDR3-IL8 IgG (antibody)
VH: QVQLVQSGAEVKKPGASVKVSCKVSGYTLTELSMHWVRQAPGKGLEWMGGFDPEDGETIYAQKFQGRVTMTEDTSTDTAYMELSSLRSEDTAVYYCTSVHQETKKYQSPRSAKELRCQCIKTYSKPFHPKFIKELRVIESGPHCANTEIIVKLSDGRELCLDPKENWVQRVVEKFLKRAENSGSGSYTYNYEWHVDVWGQGLLVTVSSAS
light: not shown
notes: also called VH1-24 BLVCDR3IL8

What was measured:
[1] = molecular target: T1, CXCR1; assay: flow cytometry, IgG 10 nM, 2% BSA in PBS plus 2 ug/ml heparin sulfate
Experimental: Transfections and ELISA were carried out as described above, and flow cytometry was used to evaluate CXCR1 binding specificity as previously described, with the modification that cells were resuspended in 2% BSA in PBS plus 2 ug/ml Heparin sulfate, and IgGs were normalized to 10 nM during incubation on cells.

[2] = molecular target: T1, CXCR1; assay: flow cytometry; CXCR1-U2OS over parental U2OS cells
[3] = molecular target: T1, CXCR1; assay: flow cytometry; secreted IgG, CXCR1-U2OS over parental U2OS cells
[4] = molecular target: T1, CXCR1; assay: flow cytometry, IgG supernatant, fluorescent anti-human Fc; parental U2OS: 5
Experimental: (§1) Briefly, a cell line expressing functionally validated CXCR1 derived from U2OS cells was obtained from DiscoveRx and cultured per manufacturer's instructions (Cat#93-0226C3, DiscoveRx Corporation, Freemont, Calif.). The parental cell line U2OS was obtained from ATCC and cultured under the same conditions as the CXCR1 cells. Cell culture supernatants were then tested for binding to cells by flow cytometry. The adherent U2OS or CXCR1-U2OS cells were dissociated with Accutase (Innovative Cell Technologies, Inc., San Diego, Calif.), neutralized with an equal volume of media containing 10% serum, centrifuged at 1000 g, and resuspended in PBS with 2% BSA. Next, cells were dispensed into microtiter plates to achieve between 30,000 to 300,000 cells per well, centrifuged again, and resuspended in cell culture supernatant containing expressed IgG, or a dilution of IgG-containing cell culture supernatant. A fluorescent-conjugated anti-Human Fc antibody was used to detect binding of the expressed antibody to cells.

[5] = molecular target: T1, CXCR1; assay: flow cytometry; fluorescence on CXCR1-U2OS over parental U2OS cells
Experimental: as §1

[6] = molecular target: T1, CXCR1; assay: as above; remark: listed apart in the source
Experimental: as §1

Binder | fluorescence on CXCR1-U2OS cells [4] | Ratio of CXCR1/Parental [5] | FACS CXCR1/Parental Ratio [6] | further results
B1 | – | – | – | CXCR1 specificity (CXCR1/parental ratio) [1]: 7.2; CXCR1/Parental Ratio [2]: 2.4
B2 | – | – | – | CXCR1 specificity (CXCR1/parental ratio) [1]: 11.1; CXCR1/Parental Ratio [2]: 3.1
B3 | – | – | – | FACS CXCR1/Parental Ratio [3]: 5
B4 | 6 | 1.1 | – | –
B5 | 9 | 1.9 | 1.9 | –
B6 | – | 9.3 | 9.3 | –
B7 | – | – | 8 | –
B8 | – | – | 4 | –
B9 | 23 | 4.3 | – | –
